Experimental data: patent US20200360437A1

Molecular target: NKG2D ligand MIC-A and MIC-B molecules on tumor cells
Assay: cell-based or functional assay

specific lysis activity (CCK-8), A549 cells, effector:target 0.5:1: 21%
specific lysis activity (CCK-8), A549 cells, effector:target 1:1: 30%
specific lysis activity (CCK-8), H1299 cells, effector:target 0.5:1: 39%
specific lysis activity (CCK-8), H1299 cells, effector:target 1:1: 80%
specific lysis activity (CCK-8), MCF-7 cells, effector:target 0.5:1: 43%
specific lysis activity (CCK-8), MCF-7 cells, effector:target 1:1: 56%
specific lysis activity (CCK-8), MDMB-231 cells, effector:target 0.5:1: 7%
specific lysis activity (CCK-8), MDMB-231 cells, effector:target 1:1: 14%
specific lysis activity (CCK-8), SW-480 cells, effector:target 0.5:1: 8%
specific lysis activity (CCK-8), SW-480 cells, effector:target 1:1: 16%
Substance: fusion protein NKG2D-CD8αhinge-CD8TM-4-1BB-CD3ζ (chimeric antigen receptor expressed on NK-92 cells)
